Source: patent US20130071379A1 (Merck Sharp & Dohme, published 2013)

Tests used:
hPCSK9v5His [1] = target: T1, hPCSK9v5His (human, UniProt Q8NBP7 31-692); experiment: cell-based or functional assay
mPCSK9v5His [2] = target: T2, mPCSK9v5His (mouse, UniProt Q80W65 35-694); experiment: cell-based or functional assay
[3] = target: T3, AlexaFluor647-labeled PCSK9; experiment: TR-FRET competition assay: 1B20 titrated against 10 nM AF647-PCSK9; the blocked ligand is Eu-sLDLR (about 4 nM); the Ratio falls from about 6200 to about 1000 (right curve, squares)
T3 construct: Used in the TR-FRET assay and in the internalization assay; also called AF647-PCSK9; AF-labeled PCSK9
T3 sequence (Q8NBP7 153-692, chain 1 of 2): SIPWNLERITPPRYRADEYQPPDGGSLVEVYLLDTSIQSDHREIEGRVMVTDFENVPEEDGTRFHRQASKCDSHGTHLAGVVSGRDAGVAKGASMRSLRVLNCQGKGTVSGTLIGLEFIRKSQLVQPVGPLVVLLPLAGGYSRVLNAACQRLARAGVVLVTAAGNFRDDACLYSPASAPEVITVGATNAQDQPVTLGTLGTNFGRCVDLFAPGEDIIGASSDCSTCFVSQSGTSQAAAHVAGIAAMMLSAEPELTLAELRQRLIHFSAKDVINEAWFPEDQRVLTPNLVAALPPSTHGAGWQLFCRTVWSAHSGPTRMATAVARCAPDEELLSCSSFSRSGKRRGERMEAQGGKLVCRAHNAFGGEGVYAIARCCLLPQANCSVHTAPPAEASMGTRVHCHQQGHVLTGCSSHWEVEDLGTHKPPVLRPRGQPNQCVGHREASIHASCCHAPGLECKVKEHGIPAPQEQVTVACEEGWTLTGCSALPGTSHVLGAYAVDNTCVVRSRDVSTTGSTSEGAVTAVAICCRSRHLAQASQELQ
T3 sequence (Q8NBP7 31-152, chain 2 of 2): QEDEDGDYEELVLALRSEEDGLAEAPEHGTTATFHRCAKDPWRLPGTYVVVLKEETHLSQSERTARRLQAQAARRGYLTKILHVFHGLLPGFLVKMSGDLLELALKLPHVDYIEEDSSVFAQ
Protocol: (§1) AlexaFluor647-labeled PCSK9 (final concentration 10 nM) was combined with varying amounts of 1B20 and to this was added Eu(8044)-labeled LDLR ectodomain to a final concentration of ˜4 nM (sufficient to give ˜20,000 counts at F1620 nM on the Rubystar) in […] (pH 7.4), 150 mM NaCl, 0.1 mM CaCl₂, 0.05% (w/v) BSA in a total volume of 50 μL using 96 well black Dynatech U bottom plates. After at least 90 minutes of equilibration, samples were read in a Rubystar reader (BMG Corp.) using 20 flashes per well, a 50 usec integration delay, and a 200 usec total integration time. Data were expressed as the ratio of (F1665/F1620×10000) and an IC₅₀ for 1B20 was determined from the inflection point of a sigmoidal dose-response curve using a standard four parameter fit.

hPCSK9v5His [4] = target: T1, hPCSK9v5His; experiment: SPR Biacore 2000; Fab captured on anti-Fab IgG, PCSK9 in flow
Protocol: (§2) Anti-Fab IgG (Human specific) (Sigma, catalog #15260) was covalently coupled to surfaces 1 and 2 of a Sensor Chip CM5 via primary amine groups, using the immobilization wizard with the “Aim for immobilization” option using Biacore™ Amine Coupling Kit (cat#BR-1000-50. A target immobilization of 5000 RU was specified. The wizard uses a 7 minute activation with a 1:1 mixture of 100 mM NHS (N-Hydroxysuccinimide) and 400 mM EDC (1-ethyl-3-(3-dimethylaminopropyl)-carbodiimide), injects the ligand in several pulses to achieve the desired level, then deactivates the remaining surface with a 7 minute pulse of ethanolamine.
(§3) Anti-PCSK9 Fabs were captured on capture surface 2, and surface 1 was used as a reference for kinetic studies of Fab:PCSK9 interactions. […] 5-10 concentrations of hPCSK9v5H is or mPCSK9v5His antigens were flowed across the surface at […] for 3-4 minutes. 15-60 minutes dissociation time was allowed before regeneration of the Anti-Fab surface with a 30 second pulse of 10 mM glycine pH 2.0.
(§4) BiaEvaluation Software was used to evaluate the sensograms from the multiple concentration of PCSK9 antigen analyzed with each Fab, to estimate the kinetics constants of the Fab:PCSK9 interactions.

mPCSK9v5His [5] = target: T2, mPCSK9v5His; experiment: as above
Protocol: as §2, §3, §4

hPCSK9v5His [6] = target: T1, hPCSK9v5His; experiment: SPR Biacore 2000; IgG captured on goat anti-human IgG, PCSK9 in flow
Protocol: (§5) A goat Anti-Human IgG (Caltag, catalog #H10700) was covalently coupled to surfaces 1 and 2 of a Sensor Chip CM5 via primary amine groups, using the immobilization wizard with the “Aim for immobilization” option using Biacore™ Amine Coupling Kit (cat#BR-1000-50. A target immobilization of 5000 RU was specified. The wizard uses a 7 minute activation with a 1:1 mixture of 100 mM NHS (N-Hydroxysuccinimide) and 400 mM EDC (1-ethyl-3-(3-dimethylaminopropyl)-carbodiimide), injects the ligand in several pulses to achieve the desired level, then deactivates the remaining surface with a 7 minute pulse of ethanolamine.
(§6) Anti-PCSK9 IgGs were captured on capture surface 2, and surface 1 was used as a reference for kinetic studies of IgG:PCSK9 interactions. IgG was captured by flowing a 10 nM solution at 10 μl/min for 1-1.5 minutes to reach a target RL for an R max of 100-150 RU for the reaction. 5-10 concentrations of hPCSK9v5His or mPCSK9v5His antigens were flowed across the surface at 30 or 60 μl/minute for 4 minutes. 15-60 minutes dissociation time was allowed before regeneration of the Anti-IgG surface with a 60 second pulse of 10 mM Glycine pH 1.7.
(§7) BiaEvaluation Software was used to evaluate the sensograms from the multiple concentration of PCSK9 antigen analyzed with each IgG, to estimate the kinetics constants of the IgG:PCSK9 interactions.

mPCSK9v5His [7] = target: T2, mPCSK9v5His; experiment: as above
Protocol: as §5, §6, §7

[8] = target: T3, AlexaFluor647-labeled PCSK9; experiment: TR-FRET competition assay: 1B20 titrated against 10 nM AF647-PCSK9; the blocked ligand is Eu-sLDLR (about 4 nM); the Ratio falls from about 6200 to about 1000 (left curve, circles)
Protocol: as §1

hPCSK9v5His [9] = target: T1, hPCSK9v5His; experiment: Bio-Rad ProteOn SPR, Fab against human PCSK9-V5-His
Protocol: Additional site-directed mutant variants of 1B20 were generated (mutations in the heavy chain) and are disclosed herein as SEQ ID NOs: 102-107. Kds of site-directed mutant variants of 1B20 Fabs were determined using a Bio-Rad ProteOn; with affinity being measured against human PCSK9-V5-His. The methodologies for measuring Fab affinities are essentially the same as previously described for Biacore®.

T2 sequence (Q80W65 35-694 limits assumed): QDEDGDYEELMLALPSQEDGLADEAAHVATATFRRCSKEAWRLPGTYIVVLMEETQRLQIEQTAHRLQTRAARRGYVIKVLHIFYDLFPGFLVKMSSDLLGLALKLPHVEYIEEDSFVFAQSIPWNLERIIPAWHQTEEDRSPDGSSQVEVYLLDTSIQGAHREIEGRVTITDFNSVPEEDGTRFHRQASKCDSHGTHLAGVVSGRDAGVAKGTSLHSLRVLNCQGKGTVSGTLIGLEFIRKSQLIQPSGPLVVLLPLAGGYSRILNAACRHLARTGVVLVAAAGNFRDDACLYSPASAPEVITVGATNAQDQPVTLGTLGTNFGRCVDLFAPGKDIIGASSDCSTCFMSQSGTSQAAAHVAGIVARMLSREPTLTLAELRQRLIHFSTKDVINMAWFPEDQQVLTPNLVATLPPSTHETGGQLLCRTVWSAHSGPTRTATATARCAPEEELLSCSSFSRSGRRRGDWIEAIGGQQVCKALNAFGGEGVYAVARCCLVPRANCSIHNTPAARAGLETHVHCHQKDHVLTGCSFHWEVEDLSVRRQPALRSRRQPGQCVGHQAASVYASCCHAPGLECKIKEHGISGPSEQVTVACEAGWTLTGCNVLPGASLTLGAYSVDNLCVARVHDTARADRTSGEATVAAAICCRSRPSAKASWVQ
T1 sequence (Q8NBP7 31-692 limits assumed): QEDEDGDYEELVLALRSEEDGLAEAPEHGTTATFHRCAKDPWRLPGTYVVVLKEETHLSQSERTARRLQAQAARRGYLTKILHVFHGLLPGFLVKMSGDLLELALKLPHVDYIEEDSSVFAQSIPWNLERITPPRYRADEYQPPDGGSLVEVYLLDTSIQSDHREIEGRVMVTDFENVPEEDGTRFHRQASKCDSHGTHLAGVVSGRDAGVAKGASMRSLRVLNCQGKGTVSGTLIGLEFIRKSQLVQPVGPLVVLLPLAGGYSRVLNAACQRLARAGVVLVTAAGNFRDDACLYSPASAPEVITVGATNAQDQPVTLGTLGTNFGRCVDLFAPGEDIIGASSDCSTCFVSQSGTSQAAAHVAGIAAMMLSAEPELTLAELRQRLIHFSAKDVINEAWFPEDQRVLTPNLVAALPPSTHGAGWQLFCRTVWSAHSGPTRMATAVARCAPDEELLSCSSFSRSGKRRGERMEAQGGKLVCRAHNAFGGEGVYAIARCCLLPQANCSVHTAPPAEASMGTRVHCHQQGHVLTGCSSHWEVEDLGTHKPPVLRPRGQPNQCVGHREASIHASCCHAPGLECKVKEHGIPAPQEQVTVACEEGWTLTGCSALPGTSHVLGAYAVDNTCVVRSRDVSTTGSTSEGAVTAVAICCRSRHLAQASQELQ

B1: 1B20 Fab (Fab, V domains shown)
VH: QVQLVQSGAEVKKPGESLKISCKGSGYSFTNYWISWVRQMPGKGLEWMGIIYPGDSYTNYSPSFQGQVTISADKSISTAYLQWSSLKASDTAMYYCARDYWYKPLFDIWGQGTLVTVSS
VL: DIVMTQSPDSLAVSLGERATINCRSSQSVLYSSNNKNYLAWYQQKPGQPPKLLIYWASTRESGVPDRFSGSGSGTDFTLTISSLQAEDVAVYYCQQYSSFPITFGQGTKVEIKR
notes: His-tagged Fab expressed in E. coli and purified by IMAC; also called 6CX1B20
IC50, inhibition of PCSK9-dependent loss of cellular LDL-uptake (Exopolar assay, HEK cells) (hPCSK9v5His [1]): 145 nM | IC50, inhibition of PCSK9-dependent loss of cellular LDL-uptake (Exopolar assay, HEK cells) (mPCSK9v5His [2]): 152 nM | IC50 [3]: 25.8 nM | Ka (hPCSK9v5His [4]): 1.5e+09 M⁻¹ | Kd (hPCSK9v5His [4]): 0.74 nM | koff (hPCSK9v5His [4]): 4.8e-05 s⁻¹ | kon (hPCSK9v5His [4]): 66000 M⁻¹ s⁻¹ | Ka (mPCSK9v5His [5]): 2e+09 M⁻¹ | Kd (mPCSK9v5His [5]): 0.51 nM | koff (mPCSK9v5His [5]): 7.2e-05 s⁻¹ | kon (mPCSK9v5His [5]): 141000 M⁻¹ s⁻¹

B2: 1B20 IgG (antibody, V domains shown)
VH: QVQLVQSGAEVKKPGESLKISCKGSGYSFTNYWISWVRQMPGKGLEWMGIIYPGDSYTNYSPSFQGQVTISADKSISTAYLQWSSLKASDTAMYYCARDYWYKPLFDIWGQGTLVTVSS
VL: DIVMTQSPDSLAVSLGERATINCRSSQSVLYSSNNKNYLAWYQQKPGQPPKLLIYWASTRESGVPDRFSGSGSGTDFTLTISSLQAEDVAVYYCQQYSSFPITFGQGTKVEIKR
notes: Full-length IgG2m4 with kappa light chain, expressed in HEK293 cells, purified on Protein A; also called 1B20 whole IgG; 1B20 IgG2m4
IC50, inhibition of PCSK9-dependent loss of cellular LDL-uptake (Exopolar assay, HEK cells) (hPCSK9v5His [1]): 22 nM | IC50, inhibition of PCSK9-dependent loss of cellular LDL-uptake (Exopolar assay, HEK cells) (mPCSK9v5His [2]): 13 nM | Ka (hPCSK9v5His [6]): 1.4e+09 M⁻¹ | Kd (hPCSK9v5His [6]): 0.89 nM | koff (hPCSK9v5His [6]): 4.3e-05 s⁻¹ | kon (hPCSK9v5His [6]): 53000 M⁻¹ s⁻¹ | Ka (mPCSK9v5His [7]): 7.4e+08 M⁻¹ | Kd (mPCSK9v5His [7]): 1.4 nM | koff (mPCSK9v5His [7]): 0.00012 s⁻¹ | kon (mPCSK9v5His [7]): 89000 M⁻¹ s⁻¹ | IC50 [8]: 2.8 nM

B3: 1B20 Fab variant N59K (Fab, V domains shown)
VH: QVQLVQSGAEVKKPGESLKISCKGSGYSFTNYWISWVRQMPGKGLEWMGIIYPGDSYTKYSPSFQGQVTISADKSISTAYLQWSSLKASDTAMYYCARDYWYKPLFDIWGQGTLVTVSS
VL: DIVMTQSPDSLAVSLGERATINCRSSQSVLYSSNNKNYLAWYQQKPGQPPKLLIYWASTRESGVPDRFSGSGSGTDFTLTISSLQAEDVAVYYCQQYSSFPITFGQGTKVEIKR
notes: Site-directed variant of the 1B20 Fab, 'mutations in the heavy chain'
Kd (hPCSK9v5His [9]): 0.013 nM

B4: 1B20 Fab variant N59R (Fab, V domains shown)
VH: QVQLVQSGAEVKKPGESLKISCKGSGYSFTNYWISWVRQMPGKGLEWMGIIYPGDSYTRYSPSFQGQVTISADKSISTAYLQWSSLKASDTAMYYCARDYWYKPLFDIWGQGTLVTVSS
VL: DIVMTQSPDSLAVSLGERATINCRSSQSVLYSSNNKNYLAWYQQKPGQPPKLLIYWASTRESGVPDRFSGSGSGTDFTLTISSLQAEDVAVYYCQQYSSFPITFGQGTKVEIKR
notes: as for B3
Kd (hPCSK9v5His [9]): 0.049 nM

B5: 1B20 Fab variant W101Y (Fab, V domains shown)
VH: QVQLVQSGAEVKKPGESLKISCKGSGYSFTNYWISWVRQMPGKGLEWMGIIYPGDSYTNYSPSFQGQVTISADKSISTAYLQWSSLKASDTAMYYCARDYYYKPLFDIWGQGTLVTVSS
VL: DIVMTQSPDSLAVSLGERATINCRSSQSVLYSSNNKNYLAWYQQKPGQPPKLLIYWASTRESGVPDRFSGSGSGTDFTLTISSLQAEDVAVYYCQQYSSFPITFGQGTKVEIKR
notes: as for B3
Kd (hPCSK9v5His [9]): 0.78 nM

B6: 1B20 Fab variant W101A (Fab, V domains shown)
VH: QVQLVQSGAEVKKPGESLKISCKGSGYSFTNYWISWVRQMPGKGLEWMGIIYPGDSYTNYSPSFQGQVTISADKSISTAYLQWSSLKASDTAMYYCARDYAYKPLFDIWGQGTLVTVSS
VL: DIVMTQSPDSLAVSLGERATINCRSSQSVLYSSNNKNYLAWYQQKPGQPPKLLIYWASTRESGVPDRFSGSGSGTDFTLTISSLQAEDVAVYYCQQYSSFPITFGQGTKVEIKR
notes: as for B3
Kd (hPCSK9v5His [9]): 1.37 nM

B7: 1B20 Fab variant N59Q (Fab, V domains shown)
VH: QVQLVQSGAEVKKPGESLKISCKGSGYSFTNYWISWVRQMPGKGLEWMGIIYPGDSYTQYSPSFQGQVTISADKSISTAYLQWSSLKASDTAMYYCARDYWYKPLFDIWGQGTLVTVSS
VL: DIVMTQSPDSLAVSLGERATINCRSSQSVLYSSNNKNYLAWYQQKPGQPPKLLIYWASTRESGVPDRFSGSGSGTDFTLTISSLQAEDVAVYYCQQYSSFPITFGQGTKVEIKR
notes: as for B3
Kd (hPCSK9v5His [9]): 0.117 nM

B8: 1B20 Fab variant W101F (Fab, V domains shown)
VH: QVQLVQSGAEVKKPGESLKISCKGSGYSFTNYWISWVRQMPGKGLEWMGIIYPGDSYTNYSPSFQGQVTISADKSISTAYLQWSSLKASDTAMYYCARDYFYKPLFDIWGQGTLVTVSS
VL: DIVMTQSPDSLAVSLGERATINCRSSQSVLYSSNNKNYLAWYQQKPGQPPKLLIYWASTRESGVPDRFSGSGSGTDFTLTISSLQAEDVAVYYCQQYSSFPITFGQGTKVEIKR
notes: as for B3
Kd (hPCSK9v5His [9]): 1.12 nM
